The nature of this data set: yeast display, Sf9 membrane polyspecificity reagent, FACS + sequencing; frameworks hold sequencing errors. Put shortly:
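In a synthetic yeast display library (Saccharomyces cerevisiae BJ5465), nanobody expression was induced with galactose for 36–48 hours. FACS gates were set low and high (top ~1%) using anti-HA fluorescence for expression and streptavidin fluorescence for binding of the Sf9 membrane reagent. Each polyreactivity label is drawn from the gate of origin.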
As for “QVQLVESGGGLVQAGGSLRLSCAASGRTFSYYAMGWYRQAPGKERELVAAITSSGTGTYYADSVKGRFTISRDNAKNTVYLQMNSLKPEDTAVYYCAVLTTSKSRVKLYYWGQGTQVTVSS”, the “polyreactivity (PSR sort gate)” value is on record as “high polyreactivity”. Consider “QVQLVESGGGLVQAGGSLRLSCAASGRTFSYYAMGWYRQAPGKERELVASIRKSGASTYYADSVKGRFTISRDNAKNTVYLQMNSLKPEDTAVYYCNTAGWSFYSGRYDYWGQGTQVTVSS”, for which the “polyreactivity (PSR sort gate)” value is recorded as “high polyreactivity”.

As for “QVQLVESGGGLVQAGGSLRLSCAASGRTFSYYAMGWYRQAPGKERELVAYITSSGGSTYYADSVKGRFTISRDNAKNTVYLQMNSLKPEDTAVYYCATRGGSRARGMDYWGQGTQVTVSS”, the “polyreactivity (PSR sort gate)” value is on record as “high polyreactivity”. Regarding “QVQLVESGGGLVQAGGSLRLSCAASGRTFSYYTMGWSRQAPGKERELVAAISWSGGNTYYADSVKGRFTISRDNAKNTVYLQMNSLKPEDTAVYYCAARSVYGSYSGYDYWGQGTQVTVSS”, the “polyreactivity (PSR sort gate)” value is on record as “high polyreactivity”. The same measure for “QVQLVESGGGLVQAGGSLRLSCAASGRTFSYYTMGWYRQAPGKERELVARISNRGTNTYYADSVKGRFTISRDNAKNTVYLQMNSLKPEDTAVYYCNAAFSVRHLYRYDYWGQGTQVTVSL”: “low polyreactivity”; for “QVQLVESGGGLVQAGGSLRLSCAASGRTFTFNAMGWYRQAPGKERELVARIDWRGITYADSVKGRFTISRDNAKNTVYLQMNSLKPEDTAVYYCAAVWLHISYYGKYDYWGQGTQVTVSS”: “low polyreactivity”; for “QVQLVESGGGLVQAGGSLRLSCAASGRTFTGNVMGWYRQAPGKERELVAAISRSGTSTYYADSVKGRFTISRDNAKNTVYLQMNSLKPEDTAVYYCAARRTAGYRSGEYDYWGQGTQVTVSS”: “high polyreactivity”.

For “QVQLVESGGGLVQAGGSLRLSCAASGRTFTGYAMGWYRQAPGKEREFVAAITQRGGSTYYADSVKGRFTISRDNAKNTVYLQMNSLKPEDTAVYYCAASYLTWKRRYDYWGQGTQVTVSS”, the “polyreactivity (PSR sort gate)” value is “high polyreactivity”.

Regarding “QVQLVESGGGLVQAGGSLRLSCAASGRTFTIYARGWYRQAPGKERELVAAITSGGSTYYADSVKGRFTISRDNAKNTVYLQMNSLKPEDTAVYYCDRGYAVSLVSRYDYWGQGTQVTVSS”, the “polyreactivity (PSR sort gate)” value is “low polyreactivity”. Regarding “QVQLVESGGGLVQAGGSLRLSCAASGRTFTKNAMGWYRQAPGKERELVAAISISGGSTYYADSVKGRFTISRDNAKNTVYLQMYSLKPEDTAVYYCAADVVTYLSYTLDYWGQGTQVTVSS”, the “polyreactivity (PSR sort gate)” value is reported as “low polyreactivity”. Regarding “QVQLVESGGGLVQAGGSLRLSCAASGRTFTKYAMGWYRQAPGKERELVAGITRRGGNTYYADSVKGRFTISRDNAKNTVYLQMNSLKPEDTAVYYCAKGYDFLRYDYWGQGTQVTVSS”, the “polyreactivity (PSR sort gate)” value is “high polyreactivity”. The same measure for “QVQLVESGGGLVQAGGSLRLSCAASGRTFTLYAMGWYRQAPGKERELVAAIRWSGSSTYYADSVKGRFTISRDNAKNTVYLQMNSLKPEDTAVYYCAADRAYRRFSQGAYSPWILKYGYWGQGTQVTVSS”: “high polyreactivity”; for “QVQLVESGGGLVQAGGSLRLSCAASGRTFTNNVMGWYRQAPGKERELVAAITSGGTNYADSVKGRFTISRDNAKNTVYLQMNSLKPEDTAVYYCATDYYDEVTIGYDYWGQGTQVTVSS”: “low polyreactivity”.

For “QVQLVESGGGLVQAGGSLRLSCAASGRTFTNYAMGWYRQAPGKERELVASISNAGSTNYADSVKGRFTISRDNAKNTVYLQMNSLNPEDTAVYYCAADFFAGTQRTFDYWGQGTQVTVSS”, the “polyreactivity (PSR sort gate)” value is recorded as “high polyreactivity”.

In the case of “QVQLVESGGGLVQAGGSLRLSCAASGRTFTPNAMGWYRQAPGKDRELVAAITSTGGRTYYADSVKGRFTISRDNAKNTVYLQMNSLKPDDTAVYYCAVSYRYLRKYGYWGQGTQVTVSS”, the “polyreactivity (PSR sort gate)” value is “high polyreactivity”.

Turning to “QVQLVESGGGLVQAGGSLRLSCAASGRTFTQYAMGWYRQAPGKERELVAAIDYRGSRTYYADSVKGRFTISRDNAKNTVYLQMNSLKPEDTAFYYCNTVHRFGTYDYWGQGTQVTVSS”, the “polyreactivity (PSR sort gate)” value is “high polyreactivity”. With “QVQLVESGGGLVQAGGSLRLSCAASGRTFTRNAMGWYRQAPGKERELVASITNGVSTNYADSVKGRFTISRDNAKNTVYLQMNSLKPEDTAVYYCNKGPLISYAYRYYQPYDYWGQGTQVTVSS”, the “polyreactivity (PSR sort gate)” value is recorded as “low polyreactivity”. The result for “QVQLVESGGGLVQAGGSLRLSCAASGRTFTRYAMGWYRQAPGKERELVAAISWSGGSTYYADSVKGRFTISRDNAKNSVYLQMNSLKPEDTAVYYCNAYYYYPEFNYWGLGTQVTVSS” reads “high polyreactivity”; that for “QVQLVESGGGLVQAGGSLRLSCAASGRTFTRYAMGWYRQAPGKERELVASISNGGNTYYADSVKGRFTISRDYAKNTVYLQMNSLKPEDTAVYYCAAKWKNSRPDWRGYWGQGTQVTVSS”, “high polyreactivity”. The same measure for “QVQLVESGGGLVQAGGSLRLSCAASGRTFTRYAMGWYRQAPGKERELVASITTGGRTYYADSVKGRFTISRDNAKNTVYLQMNSLKPEDTAVYYCAARTYGGFEYWGQGTQVTVSS”: “high polyreactivity”. The result for “QVQLVESGGGLVQAGGSLRLSCAASGRTFTRYAMGWYRQAPGKERELVATINSSGDRTYYADSVKGRFTISRDNAKNTVYLQMNSLKPEDTAVYYCAKRWSPYLYGYWGQGTQVTVSS” reads “high polyreactivity”.

With “QVQLVESGGGLVQAGGSLRLSCAASGRTFTRYAMGWYRQAPGPERELVAASRWSGTRTYYAVSVKGRITISRDNAKNTVDLQMNSLTPEDTAVYYCAARDRVYPDYGYWGQGTQVTVSS”, the “polyreactivity (PSR sort gate)” value is listed as “high polyreactivity”.

As to “QVQLVESGGGLVQAGGSLRLSCAASGRTFTRYTMGWYRQAPGKERELVAAISYSGGSTYYADSVKGRFTISRDNAKNTVYLQMNSLKPEDTAVYYCAAASVRWPGYDYWGQGTQVTVSS”, the “polyreactivity (PSR sort gate)” value was “high polyreactivity”. Take “QVQLVESGGGLVQAGGSLRLSCAASGRTFTRYTMGWYRQAPGKERELVAAITRGGSTYADSVKGRFTISRDNAKNTVYLQMNSMKPEDTAVYYCAAYWGFYPWRAYPYDYWGQGTQVTVSS”: the “polyreactivity (PSR sort gate)” value was “high polyreactivity”. As for “QVQLVESGGGLVQAGGSLRLSCAASGRTFTRYTSGSYRPAPGKERELVAAIRYSGGSTYYADSVKGRFTISGDNAKNTVYLQMNSLKPEDTAVYYCAARSYYYGFLYRYDYWGQGTQVTVSS”, the “polyreactivity (PSR sort gate)” value was “low polyreactivity”.

With “QVQLVESGGGLVQAGGSLRLSCAASGRTFTSNAMGWYRQAPGKERELVAAISNRGTRTYYADSVKGRFTISRDNAKNTVYLQMNSLKPEDTAVYYCAASERDQRFKHYYWGQGTQVTVSS”, the “polyreactivity (PSR sort gate)” value was “high polyreactivity”.

For the sequence “QVQLVESGGGLVQAGGSLRLSCAASGRTFTSYAIGWYRQAPGKERELVAAISGSGSRTKYADSVKGRFTISRDNAKNTVYLQMNSLKPEDTAVYYCNADYRHRHDYWGQGTQVTVSS”, the “polyreactivity (PSR sort gate)” value was “high polyreactivity”. For “QVQLVESGGGLVQAGGSLRLSCAASGRTFTSYAMGWYRQAPGKERELVAAISGNGVTTYYADSVKGRFTISRDNAKNTLYLQINSLKPEDTAVYYCAAGQRRFGYYYWGQGTQVTVSS”, the “polyreactivity (PSR sort gate)” value is listed as “high polyreactivity”. The result for “QVQLVESGGGLVQAGGSLRLSCAASGRTFTSYAMGWYRQAPGKERELVAAISGSGSRTYYADSVKGRFTISRDNAKNTVYLQMNSLKPEDTAVYYCAVSYTTYYHRYYYWGQGTQVTVSS” reads “high polyreactivity”; that for “QVQLVESGGGLVQAGGSLRLSCAASGRTFTVYAMGWYRQAPGKEREFVAAITERGGSTYYADSVKGRFTISRDNAKNTVYLQMNSLKPEDTAVYYCAAVYYWRPGWYVRFDYWGHGTQVTVSS”, “low polyreactivity”; that for “QVQLVESGGGLVQAGGSLRLSCAASGRTFTVYGMGWYRQAPGKEREFVATISRRGGRTYYADSVKGRFTISRDNAKNTVYLHMNSLKPEDTAVYYCNADIGTYVRSGGGDFWGQGTQVTVSS”, “low polyreactivity”.

In the case of “QVQLVESGGGLVQAGGSLRLSCAASGRTFTWYAMGWYRQAPGKERELVAAISKSGGSTYYADSVKGRFTISRDNAKNTVYLQMNSLKPEDTAVYYCNADFYGYFLGYGYWGQGTQVTVSS”, the “polyreactivity (PSR sort gate)” value is “low polyreactivity”.

For “QVQLVESGGGLVQAGGSLRLSCAASGRTFTYNAMGWYRQAPGKERELVAAISRSGGRTYYADSVKGRFTISRDNAKNTVYLQMNSLKPEDTAVYYCNTDGYYTTAKYGYWGQGTQVTVSS”, the “polyreactivity (PSR sort gate)” value is “high polyreactivity”. “QVQLVESGGGLVQAGGSLRLSCAASGRTFTYNAMGWYRQAPGKERELVATINTSGASTSYADSVKGRFTISRDNAKNTVYLQMNCLKPEDTAVYYCNRDRRYYHRFDYWGQGTQVTVSS”: the “polyreactivity (PSR sort gate)” value is “low polyreactivity”. As to “QVQLVESGGGLVQAGGSLRLSCAASGRTFTYNVMGWYRQAPGKERELVAAITSGGTNYADSVKGRFTISRDNAKNTVYLQMNSLKPEDTAVYYCATDYYDDVTIGYDYWGQGTQVTVSS”, the “polyreactivity (PSR sort gate)” value is “low polyreactivity”. Take “QVQLVESGGGLVQAGGSLRLSCAASGRTFTYYAMGWYRQAPGKERELVAAIRYTGGSTHYADSVKGRFTISRDNAKNTVYLQMNSLKPEDKAVYYCAARRAYTRGGTVYFGYYYWGQGTQVTVSS”: the “polyreactivity (PSR sort gate)” value is on record as “high polyreactivity”.

“QVQLVESGGGLVQAGGSLRLSCAASGRTFTYYAMGWYRQAPGKERELVAAISNGGRTYYADSVKGRFTISRDNAKNTVYLQMNSLKPEDTAVYYSAAYLSPKGRGFGSWGQGTQVTVSS”: the “polyreactivity (PSR sort gate)” value was “high polyreactivity”. Consider “QVQLVESGGGLVQAGGSLRLSCAASGRTFTYYAMGWYRQATGKERELVAAISRGGGSTHYADSVKGRFTISRDNAKNTVYFQMNSLKPEDTAVYYCAARYSTRYKYDYWGQGTQVTVSS”, for which the “polyreactivity (PSR sort gate)” value was “high polyreactivity”. The result for “QVQLVESGGGLVQAGGSLRLSCAASGRTFTYYAMGWYRQGPGKESELVAAITSGGRTYYADSVKGRFTISRDNAKNTVYLELNSLKPDDTAVYYCADRRIRDYYRSYDYWGQGTQGTVSS” reads “high polyreactivity”. The result for “QVQLVESGGGLVQAGGSLRLSCAASGRTFTYYGKGWYRQAPGKERELVAAITERGDSTYYADSVKGRFTISRDNAKNTVYLQMNSLKPEDTAVYYCAAAEHLTRPTSPTQDGDHWGQGTQVTVSS” reads “low polyreactivity”; that for “QVQLVESGGGLVQAGGSLRLSCAASGRTFTYYSMGWYRQAPGKESELVARISIRGTNTYYADSLKGRFTISRDNAKNTVYLQMTSLKPEDTAVYYCAKYYYTSIVGYDSWGQGTQVTVSS”, “low polyreactivity”.
